Data from IntAct's records for PubMed 17666432.

B1: Transforming acid coiled-coil-containing protein 1 (Caenorhabditis elegans), G5ECG0 (parent)
chain: MSLNTTFTKEDGTEVVIPFNGSQNGHPENEEPEVEEAAEPSSSVETLCGATRGDIIVMKHTTKALTELIERLLHSDEFEVRRCSNGQIISQGRCNGTTPGNGIGGGGASSEELEKALKDRDAARAEADKLHANYATLFASFNTVREAANDIRGEYEDARDKLKLAAAEVDEWQAKFLAVKDNANSELERASVEYDDLLRSHDENTKGLRLRVKRQEIELSSKNDEIKVLTNRVSELSQICDQLLNDVDVSDGMSVISTDA
partner: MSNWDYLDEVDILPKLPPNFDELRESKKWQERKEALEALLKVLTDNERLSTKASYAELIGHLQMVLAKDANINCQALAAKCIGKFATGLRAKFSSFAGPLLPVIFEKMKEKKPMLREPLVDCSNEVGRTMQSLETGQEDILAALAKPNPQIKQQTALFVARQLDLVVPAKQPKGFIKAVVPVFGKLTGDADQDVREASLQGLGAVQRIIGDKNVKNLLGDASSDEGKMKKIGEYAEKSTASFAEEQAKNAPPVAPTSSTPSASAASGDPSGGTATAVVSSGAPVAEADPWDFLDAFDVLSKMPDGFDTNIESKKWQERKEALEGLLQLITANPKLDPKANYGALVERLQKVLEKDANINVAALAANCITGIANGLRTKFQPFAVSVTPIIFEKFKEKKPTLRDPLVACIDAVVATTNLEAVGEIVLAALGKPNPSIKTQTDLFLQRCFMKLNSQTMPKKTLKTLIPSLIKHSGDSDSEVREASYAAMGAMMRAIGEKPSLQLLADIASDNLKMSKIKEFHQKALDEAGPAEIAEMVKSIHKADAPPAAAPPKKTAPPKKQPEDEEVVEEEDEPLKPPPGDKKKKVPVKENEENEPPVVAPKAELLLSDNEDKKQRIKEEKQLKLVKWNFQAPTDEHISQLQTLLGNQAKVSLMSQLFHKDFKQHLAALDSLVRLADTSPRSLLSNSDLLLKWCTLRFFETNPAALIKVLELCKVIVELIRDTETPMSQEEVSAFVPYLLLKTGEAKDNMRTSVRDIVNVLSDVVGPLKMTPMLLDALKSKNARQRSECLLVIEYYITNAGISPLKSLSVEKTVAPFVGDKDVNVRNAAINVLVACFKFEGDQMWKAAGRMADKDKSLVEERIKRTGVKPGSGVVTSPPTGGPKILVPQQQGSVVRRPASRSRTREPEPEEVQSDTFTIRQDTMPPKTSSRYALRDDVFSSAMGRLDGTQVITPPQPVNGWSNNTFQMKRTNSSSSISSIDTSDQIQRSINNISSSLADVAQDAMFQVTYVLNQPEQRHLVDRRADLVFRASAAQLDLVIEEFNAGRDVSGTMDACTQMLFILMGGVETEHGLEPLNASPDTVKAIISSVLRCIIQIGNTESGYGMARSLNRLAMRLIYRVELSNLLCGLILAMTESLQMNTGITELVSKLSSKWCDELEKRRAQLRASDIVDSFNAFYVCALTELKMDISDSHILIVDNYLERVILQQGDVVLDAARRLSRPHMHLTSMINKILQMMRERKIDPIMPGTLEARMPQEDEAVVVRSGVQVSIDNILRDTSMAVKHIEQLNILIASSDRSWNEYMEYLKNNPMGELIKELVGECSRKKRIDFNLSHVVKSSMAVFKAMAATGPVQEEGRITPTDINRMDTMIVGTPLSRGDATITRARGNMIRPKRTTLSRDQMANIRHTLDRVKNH
B2: Zygote defective protein 9 (Caenorhabditis elegans), G5EEM5 (parent)
chain: B1 partner
partner: B1 chain

Variants of: B1
Details: with zyg9_caeel zyg-9, G5EEM5
In the case of MSLNTTFTKEDGTEVVIPFNGSQNGHPENEEPEVEEAAEPSSSVETLCGATRGDIIVMKHTTKALTELIERLLHSDEFEVRRCSNGQIISQGRCNGTTPGNGIGGGGASSEELEKALKDRDAARAEADKLHANYATLFASFNTVREAANDIRGEYEDARDKLKLAAAEVDEWQAKFLAVKDNANSELERASVEYDDLLRSHDENTKGLRLRVKRQEIELSSKNDEIKVFTNRVSELSQICDQLLNDVDVSDGMSVISTDA [L229F], the “effect of a mutation on the interaction” value is reported as “decreasing interaction”.

Variants of: B2
Details: with tacc1_caeel tac-1, G5ECG0
With I862K the “effect of a mutation on the interaction” value was “decreasing interaction”. E1317K was tested, and the “effect of a mutation on the interaction” value was “decreasing interaction”.
